Four molecules from PMC1978536, “MVB-12, a Fourth Subunit of Metazoan ESCRT-I, Functions in Receptor Downregulation” (PLoS ONE, 2007) can be followed below.

The target in assay [1] is TSG-101 (C. elegans, endogenous) (C. elegans (endogenous in embryos)). The assay can be described thus: SEC + other: sucrose density gradient sedimentation; C. elegans embryo extracts desalted into 50 mM Na phosphate pH 7.0, 250 mM NaCl, 1 mM EDTA, 1 mM beta-mercaptoethanol; Superose 6 and 5-20% sucrose gradient; fractions blotted for TSG-101 and MVB-12.
The target in assay [2] is T1, TSG-101:6xHIS (recombinant C. elegans TSG-101) (C. elegans, UniProt O76258 1-425).
T1 construct: open reading frame amplified from N2 cDNA; source: E. coli BL21 (DE3), co-expressed from a polycistronic vector, purified (Ni-NTA, Superose 6); not shown: 6xHis, C-terminal, kept
T1 sequence (looked up): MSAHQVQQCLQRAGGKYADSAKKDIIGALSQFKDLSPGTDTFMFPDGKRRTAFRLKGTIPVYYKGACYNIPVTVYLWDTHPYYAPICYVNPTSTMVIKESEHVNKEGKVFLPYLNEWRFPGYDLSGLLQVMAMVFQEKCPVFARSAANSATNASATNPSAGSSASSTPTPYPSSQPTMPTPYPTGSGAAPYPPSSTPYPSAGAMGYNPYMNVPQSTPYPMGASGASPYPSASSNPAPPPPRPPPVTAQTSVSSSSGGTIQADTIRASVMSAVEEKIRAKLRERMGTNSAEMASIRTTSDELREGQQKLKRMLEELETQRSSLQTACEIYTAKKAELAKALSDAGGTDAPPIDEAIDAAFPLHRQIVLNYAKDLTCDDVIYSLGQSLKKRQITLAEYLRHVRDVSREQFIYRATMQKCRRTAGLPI
Kind of assay: SEC + other: sucrose density gradient sedimentation; TSG-101:6xHIS, VPS-28 and VPS-37 co-expressed in E. coli, purified on nickel resin; Superose 6 in 50 mM Na phosphate pH 7.0, 250 mM NaCl, 1 mM EDTA, 1 mM beta-mercaptoethanol; 5-20% sucrose gradient; Stokes radius and S-value combined to a native molecular weight. To be noted: both partners purified.

For assay [3], the target named is T1, TSG-101:6xHIS (recombinant C. elegans …). The assay can be described thus: SEC + other: sucrose density gradient sedimentation; TSG-101:6xHIS, VPS-28, VPS-37 and MVB-12 co-expressed in E. coli, purified on nickel resin; Superose 6 in 50 mM Na phosphate pH 7.0, 250 mM NaCl, 1 mM EDTA, 1 mM beta-mercaptoethanol; 5-20% sucrose gradient; Stokes radius and S-value combined to a native molecular weight. To be noted: both partners purified.

The stoichiometry N is a count of units in the complex or per binding partner.

As to “MVB-12 (C. elegans, endogenous) (from UniProt Q17687 1-277) (natural protein)”, the stoichiometry N in assay [1] was determined as 1.

B1: VPS-37 (recombinant C. elegans) (natural protein, UniProt O44158 1-234, looked up)
chain: MFSQNPYESHVDVAVSAASANLRNMTNEQLISLLDDDALLESIIVNLPQVRSMPTDKESALAANKSLAEWNLAQKPRIDAAKTQTVDLYDQVKKLQGEVAVLKSQLDSVSSSKSLDTTSSLMQVAAQEADDDAEALFTQFENGEISVEIFLKQFKDKKTIAHLRKIKSDRLAALLREQTYSSYAQPTVPPPMPHAQPGYPTGNHMPGIGNIQFGSGYSGYPNISQPSAGRHPFF
notes: VPS-37 (CD4.4), C. elegans; open reading frame amplified from N2 cDNA
For B1, the “stoichiometry N” value in assay [2] was found to be 1.

B2: MVB-12 (recombinant C. elegans) (natural protein, UniProt Q17687 1-277, looked up)
chain: MTELEFSADNAAPVIPITAICIVADKNKAPRGFLPIIKCQDDQTEADLWRDGFFTINRQVRYICTSTEIPDSNIKTPVQVITNLIIVRESDPIPHGYVAIDYTADSREKSLRKKYVCIRTEPRDRVVDAIGEIIILGKTKKVPRDYTSAGDIDSLLICYKVISIPQTYGIQTSNSTSNIESQAAGGLYPGLPNLSNSTPANLDVTGSSSNSAFTMKNAGAPRVKAIDGIDFKVNPMFVNSSGSNNSSQLPDLSQFNDLDRLDDKYNYSYATEHAVLS
notes: MVB-12 (C06A6.3), C. elegans; open reading frame amplified from N2 cDNA; 277 amino acids as printed
With B2, the “stoichiometry N” value in assay [3] was 1.

B3: VPS-28 (recombinant C. elegans) (natural protein, UniProt Q9NA26 1-210, looked up)
chain: MSSQNANLMREVRLFENHSEREQMENLSELFAVLNALEHLEKMFSRDHVSADEYKSECFKLIDQYKVTMRLVHGATSIEDFAKKYRLHCPAAIERIREGRPITVKDDQGNVLKHIASIVEQFITFLDALRLNTRAVDDLYPGLDDLYNAINTTSRVPIDAIVTTKVKKWHDRLSSMAASDEISDEDARQMIFDVESAYQAFNKALNELKH
notes: VPS-28, C. elegans; open reading frame amplified from N2 cDNA
In the case of B3, the “stoichiometry N” value in assay [2] was 1.
